# In patent US20260265392A1 (TSINGHUA UNIVERSITY, published 2026):
# B1: recombinant protein (SIM)6-CNB (VHH)
# chain: MKHHHHHHHENLYFQGAMSSKVDVIDLTIESSSDEEEDPPAKRGGSGGSGGSGGSKVDVIDLTIESSSDEEEDPPAKRGGSGGSGGSGGSKVDVIDLTIESSSDEEEDPPAKRGAMKGGSGGSGGSGGSMSSKVDVIDLTIESSSDEEEDPPAKRGGSVGSGGSGGSKVDVIDLTIESSSDEEEDPPAKRGGSGGSGGRGGSKVDVIDLTIESSSDEEEDPPAKRGAMRCWGGSGGSGGSGGSMGEVQLMESGGGLVQAGGSLRLSCAASGRTFNNYAMGWFRRAPKGEREFVAAITRSGVRSGVSAIYGDSVKDRFTISRDNAKNTLYLQMNSLKPEDTAVYTCAASAIGSGALRRFEYDYSGQGTQVTVSS
# modifications: Alexa594 label in the imaging experiment (site not stated)
# notes: Fusion of a multivalent domain with a nanobody; also called (SIM)6-CNB (Red)
# B2: recombinant protein (SIM)6-R4L (ligand)
# chain: MKHHHHHHHENLYFQGAMSSKVDVIDLTIESSSDEEEDPPAKRGGSGGSGGSGGSKVDVIDLTIESSSDEEEDPPAKRGGSGGSGGSGGSKVDVIDLTIESSSDEEEDPPAKRGAMKGGSGGSGGSGGSMSSKVDVIDLTIESSSDEEEDPPAKRGGSVGSGGSGGSKVDVIDLTIESSSDEEEDPPAKRGGSGGSGGRGGSKVDVIDLTIESSSDEEEDPPAKRGAMRCWGGSGGSGGSGGSMGMCYRKCRGGRRWCYQKCGGSGGSGGSGGS
# modifications: Alexa594 label in the imaging experiment (site not stated)
# notes: also called (SIM)6-R4L (Red)
# B3: recombinant protein (SIM)3-CNB (VHH)
# chain: MKHHHHHHHENLYFQGAMKVDVIDLTIESSSDEEEDPPAKRGGSGGSGGSGGSMMKVDVIDLTIESSSDEEEDPPAKRGGSGGSGGSGGSMMKVDVIDLTIESSSDEEEDPPAKRGGSGGSGGSGGSMGEVQLMESGGGLVQAGGSLRLSCAASGRTFNNYAMGWFRRAPKGEREFVAAITRSGVRSGVSAIYGDSVKDRFTISRDNAKNTLYLQMNSLKPEDTAVYTCAASAIGSGALRRFEYDYSGQGTQVTVSS
# modifications: Alexa594 label in the imaging experiment (site not stated)
# notes: Fusion of a multivalent domain with a nanobody; also called (SIM)3-CNB (Red); fusion protein (SIM)3-CNB
# What was measured:
# [1] = target: T1, CXC motif chemokine receptor 4 (CXCR4) (human, UniProt P61073 1-352); assay: immunofluorescence of endogenous CXCR4 on SJSA-1 cells with labelled fusion proteins; co-localization (FIG. 3A, 3B)
# T1 construct: whole, on cells; In the assays CXCR4 is the endogenous receptor of human cells; also called chemokine receptor CXCR4; endogenous CXCR4
# Description: (§1) Wherein, “Anti DR5” and “Anti CXCR4” respectively represent the fluorescence images of endogenous DR5 and CXCR4 obtained by immunofluorescence staining with DR5 antibody (Abcam, ab8416) and CXCR4 antibody (Protein Tech, 60042-1-Ig). […] The horizontal axis represents the relative distance along the straight path, and the vertical axis represents the relative fluorescence intensity measured at the corresponding position. […] From left to right, they correspond to treatment groups 1 to 3 listed in Example 2. […] The horizontal axis represents various recombinant protein treatment combinations with a final concentration of 100 nM. The vertical axis represents the fluorescence area corresponding to each spot.
# (§2) The above recombinant protein combinations were added to the culture medium to a final concentration of 100 nM. The added culture medium was mixed, incubated at 37° C. for about 1 min, and then imaged by total internal reflection fluorescence microscopy (TIRF).
# [2] = target: T2, recombinant protein (SUM)5-DNB (Alexa647 label in the imaging experiment (site not stated)); assay: fluorescence imaging of SJSA-1 cells, 100 nM each; co-localization (FIG. 3A, 3B)
# T2 construct: Fusion of a multivalent domain with a nanobody; also called (SUM)5-DNB (Green)
# Description: as §1, §2
# [3] = target: T1, CXC motif chemokine receptor 4 (CXCR4); assay: laser confocal imaging of SJSA-1 cells: membrane puncta only with ligand-fused domains; the receptor was not stained in this example
# Description: (§3) Human osteosarcoma SJSA-1 cells (purchased from ATCC (https://www.atcc.org/)) were treated with the above-labeled recombinant proteins or control solution, and then immediately subjected to laser confocal scanning microscopy imaging. The steps are as follows:
# (§4) Human osteosarcoma cell line SJSA-1 was cultured in RMPI-1640 medium containing 10% fetal bovine serum (FBS, purchased from Gibco) and 1× penicillin-streptomycin (purchased from HyClone) to 70%-80% confluence. The following combinations of recombinant proteins were added to the culture medium at the same time: (1) (SIM)₆-R4L (Red) and (SUM)₅ (Green), (2) (SIM)₆ (Red) and (SUM)₅-TRAIL (Green), (3) (SIM)₆-R4L (Red) and (SUM)₅-TRAIL (Green), (4) (SIM)₆ (Red) and (SUM)₅ (Green), to a final concentration of 100 nM respectively. The culture medium after adding the recombinant protein was mixed, incubated at 37° C. for about 1 min, and then imaged using a NIKON AIR HD25 laser confocal microscope (purchased from Nikon, Inc.).
# [4] = target: T3, multivalent domain (SUM)5 (Alexa647 label in the imaging experiment (site not stated)); assay: laser confocal imaging of SJSA-1 cells with (SIM)6-R4L (Red) and (SUM)5 (Green), 100 nM each (combination 1, FIG. 2A); co-localization
# T3 construct: also called (SUM)5 (Green)
# Description: as §3, §4
# [5] = target: T4, recombinant protein (SUM)3-DNB (Alexa647 label in the imaging experiment only (site not stated); no label is stated for the apoptosis assays); assay: fluorescence imaging of SJSA-1 cells; co-localization (FIG. 5A, 5B)
# T4 construct: Fusion of a multivalent domain with a nanobody; also called (SUM)3-DNB (Green); fusion protein (SUM)3-DNB
# Description: (§5) Wherein, “Anti-DR5” and “Anti-CXCR4” respectively represent the fluorescence images of endogenous DR5 and CXCR4 obtained by immunofluorescence staining with DR5 antibody (Abcam, Catalog No. ab8416) and CXCR4 antibody (Protein Tech, Catalog No. 60042-1-Ig). […] The horizontal axis represents the relative distance along the straight path, and the vertical axis represents the relative fluorescence intensity measured at the corresponding position. […] The horizontal axis represents various recombinant protein treatment combinations with a final concentration of 100 nM. The vertical axis represents the fluorescence area corresponding to each spot.
# as §2
# (§6) By the same method as in Example 2, the total internal reflection fluorescence microscopy (TIRF) imaging of the following recombinant protein combination against the human osteosarcoma cell line SJSA-1 was measured, and the results are shown in FIG. 5: [0136] Treatment group: combination of (SIM)₃-CNB (Red) and (SUM)₃-DNB (Green) [0137] Control group: combination of (SIM)₃ (Red) and (SUM)₃ (Green)
# [6] = target: T1, CXC motif chemokine receptor 4 (CXCR4); assay: immunofluorescence of endogenous CXCR4 on SJSA-1 cells with labelled fusion proteins; co-localization (FIG. 5A, 5B)
# Description: as §5, §2, §6
# T1 sequence (P61073 whole entry, the tested form may be a part): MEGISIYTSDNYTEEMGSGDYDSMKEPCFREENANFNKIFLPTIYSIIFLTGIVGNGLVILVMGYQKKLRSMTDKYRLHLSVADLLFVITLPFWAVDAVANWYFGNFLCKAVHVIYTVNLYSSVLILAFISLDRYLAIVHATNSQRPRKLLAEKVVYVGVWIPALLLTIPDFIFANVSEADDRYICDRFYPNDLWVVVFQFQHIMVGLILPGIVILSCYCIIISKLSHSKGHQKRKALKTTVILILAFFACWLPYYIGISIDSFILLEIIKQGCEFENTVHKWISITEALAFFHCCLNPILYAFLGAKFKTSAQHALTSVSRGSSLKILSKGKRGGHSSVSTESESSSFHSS
# T2 sequence (chain, as listed by the source): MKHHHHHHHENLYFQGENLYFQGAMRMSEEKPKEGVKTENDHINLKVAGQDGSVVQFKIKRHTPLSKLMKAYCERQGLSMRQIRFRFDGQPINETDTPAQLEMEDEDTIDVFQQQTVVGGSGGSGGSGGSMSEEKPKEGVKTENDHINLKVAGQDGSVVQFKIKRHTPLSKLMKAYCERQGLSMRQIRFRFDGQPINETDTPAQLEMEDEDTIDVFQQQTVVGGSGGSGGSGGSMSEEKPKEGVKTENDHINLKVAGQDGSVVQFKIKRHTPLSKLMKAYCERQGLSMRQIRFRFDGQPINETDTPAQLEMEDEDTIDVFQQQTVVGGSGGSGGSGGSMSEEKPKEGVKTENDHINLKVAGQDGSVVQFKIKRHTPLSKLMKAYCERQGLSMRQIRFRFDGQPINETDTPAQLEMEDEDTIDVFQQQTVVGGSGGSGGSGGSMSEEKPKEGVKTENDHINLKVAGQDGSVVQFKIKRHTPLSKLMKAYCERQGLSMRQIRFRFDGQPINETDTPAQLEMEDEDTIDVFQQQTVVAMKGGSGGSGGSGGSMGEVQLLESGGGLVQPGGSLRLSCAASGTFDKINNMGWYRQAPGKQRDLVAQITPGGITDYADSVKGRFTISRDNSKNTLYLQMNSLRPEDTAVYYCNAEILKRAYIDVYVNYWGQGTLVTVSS
# T3 sequence (chain, as listed by the source): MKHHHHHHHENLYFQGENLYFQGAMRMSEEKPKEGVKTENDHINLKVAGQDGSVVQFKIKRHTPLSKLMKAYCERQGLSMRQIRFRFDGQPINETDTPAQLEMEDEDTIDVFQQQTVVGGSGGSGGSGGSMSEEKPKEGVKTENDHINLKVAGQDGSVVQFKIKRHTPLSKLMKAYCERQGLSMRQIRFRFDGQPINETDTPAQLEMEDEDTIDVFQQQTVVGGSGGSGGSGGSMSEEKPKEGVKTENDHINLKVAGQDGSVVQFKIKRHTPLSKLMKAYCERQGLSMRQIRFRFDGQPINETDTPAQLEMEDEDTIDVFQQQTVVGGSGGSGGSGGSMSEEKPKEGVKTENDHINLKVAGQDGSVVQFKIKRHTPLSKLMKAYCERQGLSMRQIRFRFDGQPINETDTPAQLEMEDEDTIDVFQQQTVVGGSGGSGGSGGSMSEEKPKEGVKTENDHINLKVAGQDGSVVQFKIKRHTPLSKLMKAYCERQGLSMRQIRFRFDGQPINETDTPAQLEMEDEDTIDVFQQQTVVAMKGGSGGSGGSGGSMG
# T4 sequence (chain, as listed by the source): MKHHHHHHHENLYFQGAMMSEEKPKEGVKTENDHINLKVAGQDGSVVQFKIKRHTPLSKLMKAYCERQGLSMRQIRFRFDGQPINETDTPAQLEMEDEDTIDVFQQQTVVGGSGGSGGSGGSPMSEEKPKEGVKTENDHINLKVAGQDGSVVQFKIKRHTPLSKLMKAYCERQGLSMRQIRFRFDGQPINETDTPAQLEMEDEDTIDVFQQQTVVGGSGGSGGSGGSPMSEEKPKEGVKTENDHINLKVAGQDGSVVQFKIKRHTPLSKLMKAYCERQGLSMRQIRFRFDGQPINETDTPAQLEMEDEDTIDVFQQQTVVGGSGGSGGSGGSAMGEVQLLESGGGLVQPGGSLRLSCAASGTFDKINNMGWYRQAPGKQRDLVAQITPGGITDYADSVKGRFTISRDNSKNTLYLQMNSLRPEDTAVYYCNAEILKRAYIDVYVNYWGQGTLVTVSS
binder,measurement,setting,value
B1,binding result,[1],binds
same,binding result,[2],binds
B2,binding result,[3],binds
same,binding result,[4],binds
B3,binding result,[5],binds
same,binding result,[6],binds
